Measured values: US20250026813A1 (published 2025)
Changes are numbered by the printed parent chain.

B1: YANG-2304 (antibody, V domains shown)
VH: QVQLVQSGTEVKKPGASVKVSCKVSGYTLPELAIHWVRQAPGKGLEWMGTFDPEDGETICAQKFQGRVTMTEDTSTDTAYMDLSSLRSEDTAVYYCATTSIIAARWWFDPWGQGTLVTVSS
VL: QSALTQPPSASGSPGQSVTISCTGTSSDVGGYDYVSWYQQHPGKAPKLMIYEVSKRPSGVPDRFSGSKSGNTASLTVSGLQAEDEADYYCSSFAGSNNVVFGGGAKLTVL
B2: YANG-2306 (antibody, V domains shown)
VH: QVQLVQSGAEVKKPGASVKVSCKVSGYTLPEISIHWVRQAPGKGLEWMGGFDPEDGETIYAQKFQGRVIMTEDTSTDTAYMDLSSLRSEDTAVYFCAAAPAIASASTFWLDPWGQGTLVTVST
VL: B1 VL with D33N, S54T, G70D, F93Y, V99L, A105T
B3: YANG-2302 (antibody, V domains shown)
VH: QVQLVQSGAEVRKPGASVKVSCKVSGYTLPELAIHWVRQAPGKGLEWMGGFIPEDGDTIYAQKFQGRVTMTEDTSTDTAYMDLTSLRSEDAAVYYCTSGWAAPGYNYGMAVWGQGTTVTVSS
VL: EVVLTQSPGTLSLSSGERATLSCRASQSVSSNYLAWYQKKPGQAPRLLIYGASSRVTGIPDRFGGSGSGTDFTLTISRLEPEDFAVYYCQQYDASPYSFGQGTKLDIK
B4: YANG-2305 (antibody, V domains shown)
VH: QVQLVESGGGVVQPGRSLRLSCAASGFTFSSYGMHWVRQAPGKGLEWVAIIWYDGSKKYYADSVKGRFTISRDNSKNTLNLQMNSLRAEDTAVYYCAREEDIVASGGLYYNFNGMDVWGQGTTVTVSS
VL: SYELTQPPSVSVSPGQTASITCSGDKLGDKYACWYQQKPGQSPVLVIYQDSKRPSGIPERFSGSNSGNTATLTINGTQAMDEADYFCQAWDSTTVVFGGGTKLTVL
B5: YANG-2301 (antibody, V domains shown)
VH: QVHLIQSGAEVKKPGASVKVSCKVSGYTLIEVSVHWVRQAPGKGLEWMGGFDPEAAETIYAQKFQGRVTMTEDTSTDTAYMDLSSLKSEDSAVYYCAIGPAVTGRNSGEYYYYYGMDVWGQGTTVTVAS
VL: EIVMTQSPATLSVSPGERATLSCRASQSVNSNLAWYQQKPGQAPRLLIYAVSTRATGLPARFSGSGSGTEFTLTISSLQSEDFVVYYCHQYNNWPLTFGGGTKVEIK
B6: YANG-2207 (antibody, V domains shown)
VH: QMQLVQSGAEVKKPGASVKISCKTSGYTFTNYYMVWVRQAPGQGLEWMGIIKPSGGNTIYAQKFQGRVTMTRDTSTNTVYLDLSSLRSEDTAVYYCARTGNRAFDVWGHGTMVTVSS
VL: QSVLTQPPSVSAAPGQKVTISCSGSSSNIGNNFVSWYQQFPGTAPKLLIYDNNKRPSGIPDRFSGSKSGTSATLGITGLQTGDEADYYCGTWDSSLGAGVFGGGTKLTVL
B7: YANG-2208 (antibody, V domains shown)
VH: QIQLVQSGAEVRKPGASVRFSCKTSGYIFTNYYMVWVRQAPGQGLEWMGIIKPSGGNTIYAQKFQGRVTMTRDTSTNTVYMDLNNLRSEDTAVYFCARTGDRAFDVWGQGTMVTVSS
VL: B6 VL with V10M, S25N, Q38R, G97S
B8: YANG-2303 (antibody, V domains shown)
VH: QVQLVQSGAEVKKPGASVRVSCKVSGYTLPELAIHWVRQAPGKGLEWMGGFDPEDGETIYAQKFQGRVIMTEDTSTDTAYMDLSSLRSEDTAVYYCVKTWAAPGYNYGLDTWGQGTTVTVSS
VL: EIVLTQSPGILSLSPGESATLSCRASQSIASNYLAWFQQKPGQAPRLLIYGASSRAAGFPDRFSGSGSGTDFTLTIKRLEPEDSAVYYCQHYGSSPCSFGQGTNLEIK
B9: IMPI-024 (antibody, V domains shown)
VH: EVQLVQSGAEVKKPGESLKISCKGSGYSFTSYWIGWVRQMPGKGLEWMGIIYPGDSDTRYSPSFQGQVTISADKSISTAYLQWSSLKASDTAMYYCVRSYNWNYFDYWGQGTLVTVSS
VL: AIQLTQSPSSLSASVGDRVTITCRASQGISSGLAWYQQKAGKAPKLLIYDVSSLESGVPSRFSGSGSGTDFTLTISSLQPEDFATYYCQQFLSYPWTFGQGTKVEIK
B10: IMPI-059 (antibody, V domains shown)
VH: EVQLVESGGGLIQPGGSLRLSCAASGFTVSSIYMSWVRQAPGKGLEWVSIIYSRGSTDYADSVKGRFTISRDISKNTLYLQMNSLRAEDTAVYYCARDGTMVRGVHAFDIWGQGTMVTVSS
VL: DIQMTQSPPSLSASIGDRVTITCQASQDISNYLNWYQQKPGKAPKLLIYDASNLETGVPSRFSGSGSGTDFTLTISNLQPEDIVTYYCQQYDNLPSSFGQGTKLEIK
B11: IMPI-055 (antibody, V domains shown)
VH: QVQLVQSGAEVKKPGASVKVSCKASGYTFTSYDINWVRQATGQGLEWMGWMNPNSGNTGYAQKFQGRVTMTRDTSINTAYMELSSLRSEDTAVYFCARGGRYCSDVTCYSGEPFDYWGQGTLVTVSS
VL: EIMLTQSPDFQSVTPKEKVTITCRASQSIGSSLHWYQQKPDQSPKLLIKFASQSISGVPSRFSGSGSGTDFTLTINSLEAEDAAAYYCHQSSSLPHTFGPGTKVEIK
B12: IMPI-029 (antibody, V domains shown)
VH: EVQLVESGGGLIQPGGSLRLSCAASGVTVSSNYMNWVRQAPGKGLEWVSVIYSGGSTYYADSVKGRFTISRDNSKNTLFLQMNSLRAEDSAVYYCARDLGPYGVDVWGQGTTVTVSS
VL: DIQLTQSPSFLSASVGDRVTITCWASQGISSYLAWYQQKPGKAPKLLIYAASTLQSGVPSRFSGSGSGTEFTLTISSLQPEDFATYYCQELNSYPLTFGQGTRLEIK
B13: IMPI-037 (antibody, V domains shown)
VH: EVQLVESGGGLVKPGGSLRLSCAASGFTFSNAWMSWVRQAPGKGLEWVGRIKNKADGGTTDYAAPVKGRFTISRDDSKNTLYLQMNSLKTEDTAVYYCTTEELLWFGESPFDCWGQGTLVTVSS
VL: B12 VL with S30N, A84T, E90Q, L91F, S93D, L96R, Q100P, R103K, L104V
B14: IMPI-017 (antibody, V domains shown)
VH: B12 VH with S25A, V27L, A40V, F79Y, S90T, P101T, Y102L, V104M
VL: B12 VL with S31T, E90Q, P95L, L96P, R103K, L104V
B15: IMPI-047 (antibody, V domains shown)
VH: B12 VH with V27F, F79Y, A87T, S90T, G100V, P101A, V104M
VL: B12 VL with L46V, E90L, Y94N, Q100G, R103K, L104V
B16: IMPI-021 (antibody, V domains shown)
VH: B12 VH with N35S, Y58F, F79Y, S90T, G100S, P101Y, V104M
VL: B12 VL with R61K, E90Q, L96C, T97S, R103K
B17: IMPI-005 (antibody, V domains shown)
VH: B12 VH with V27F
VL: B12 VL
B18: IMPI-060 (antibody, V domains shown)
VH: B12 VH with N35S, Y58F, F79Y, S90T, G100S, P101Y, V104M
VL: B12 VL with R61K, E90Q, L96S, T97S, R103K
B19: IMPI-006 (antibody, V domains shown)
VH: QLQLQESGPGLVKPSETLSLTCTVSGGSISNSNYYWGWIRQPPGKGLEWIGSIYYSGRTYYNPSLKSRVTISVDTSKNQFSLKLSSVTAADTAVYYCARMGLLWFGEFYGMDVWGQGTTVTVSS
VL: DIQMTQSPSSLSASVGDRVTITCRASQGISSWLAWYQQKPEKAPKSLIYDASSLQRGVPSRFSGSGSGTDFTLTISSLQPEDFASYYCQQYNSYPLTFGGGTRVEIK
B20: IMPI-063 (antibody, V domains shown)
VH: EVQLVESGGGVVRPGGSLRLSCAASGFTFDDYGMSWVRQAPGKGLEWVSGIYWNGGSTGYADSVKGRFTISRDNAKNSLYLQMNSLRAEDMALYYCARGVGATDYWGQGTLVTVSS
VL: EIVLTQSPGTLSLSSGERATLACRASESVRGSFLAWYQQKPGQAPRLLIYGASRRATGIPDRFSGSGSGTDFTLTISRLEPEDFAVYYCQQYGNSPMCSFGQGTKLEIK
B21: IMPI-054 (antibody, V domains shown)
VH: EVQLVESGGGLIQPGGSLRLSCAASGLTVSSNYMSWVRQAPGKGLEWVSIIYSGGSTYYADSVKGRFTISRDNSKNTLYLQMNSLRAEDTAVYYCARLGGYYYYGMDVWGQGTTVTVSS
VL: DIQMTQSPSSLSASVGERVTITCQASQDIRNYLNWYQKKPGKAPKLLIYDSSNLETGVPSRFSGSGSGTDFTFTISSLQPEDIATYYCQQYDNLPITFGQGTRLEIK
B22: IMPI-042 (antibody, V domains shown)
VH: B21 VH
VL: B21 VL with S65G

biological target: SARS-CoV-2 spike protein bearing furin mutation and truncation in retention sequence, presented in t (SARS-CoV-2, UniProt P0DTC2 14-1273); assay: cell-based or functional assay

Binder | PV neutralisation IC50 [nM] | PV neutralization % (Ab 1 ug/mL) [%]
B1 | 0.74 | 52.8
B2 | 0.43 | 60.4
B3 | 0.61 | 52.2
B4 | 0.57 | 64.4
B5 | 0.53 | 56.4
B6 | 2.59 | 57.8
B7 | 4.68 | 38.2
B8 | 0.48 | 58.6

biological target: full-length stabilised spike trimer protein of SARS-CoV-2 virus (in-house, soluble ECD with trimeris (SARS-CoV-2, UniProt P0DTC2 14-1208; P10104 458-484); assay: not given

Binder | HTRF deltaF [deltaF]
B9 | 1460
B10 | 403
B11 | 551
B12 | 1700
B13 | 557
B14 | 550
B15 | 1410
B16 | 962
B17 | 1360
B18 | 488
B19 | 1060
B20 | 968
B21 | 563
B22 | 926

biological target: T1, S1 subunit of the SARS-CoV-2 spike protein (Sino Biological 40591-V08H), His tag (SARS-CoV-2, UniProt P0DTC2 16-685); assay: not given
T1 construct: domain: S1 subunit

Binder | HTRF deltaF [deltaF]
B9 | 799
B10 | 569
B11 | 1030
B12 | 3050
B13 | 626
B14 | 752
B15 | 2250
B16 | 1280
B17 | 1510
B18 | 378
B19 | 885
B20 | -0.4
B21 | 772
B22 | 617
